The values below come from patent US7947462 (dated 2011).

For assay [1], the target named is DKK1-AP. In words: Scatchard analysis, cell binding (transfected 293T); panel d, Kd1 (high-affinity site).
For assay [2], the target named is DKK1-AP. In words: Scatchard analysis, cell binding (transfected 293T); panel d, Kd2 (low-affinity site).
Assay [3] addresses DKK2-AP. In words: Scatchard analysis, cell binding (transfected 293T); panel e, Kd1 (high-affinity site).
In assay [4] the target is DKK2-AP. The assay is described as follows: Scatchard analysis, cell binding (transfected 293T); panel e, Kd2 (low-affinity site).
Assay [5] addresses DKK2-AP. In words: Scatchard analysis, cell binding (transfected 293T); panel b.
Assay [6] concerns the target DKK1-AP. The description is as above.

B1: mkrm2 (receptor)
chain: GSLHSPGLSECFQVNGADYRGHQNYTGPRGAGRPCLFWDQTQQHSYSSASDPQGRWGLGAHNFCRNPDGDVQPWCYVAETEEGIYWRYCDIPTCHMPGYLGCFVDSGAPPALSGPSGTSTKLTVQVCLRFCRMKGYQLAGVEAGYACFCGSESDLARGRPAPATDCDQICFGHPGQLCGGDGRLGIYEVSVGSCQGNWSAPQGVIYSPDFPDEYGPDRNCSWVLGQLGAVLELTFRLFELADSRDRLELRDVSSGNLLRAFDGAHPPPPGPLRLRTAALLLTFRSDARGHAQGFALTYRGLQDTVEGRASPEDSTESLAGDPDGANASCSPKPGAAQASIGARVFSTVTAFSVLLLLLLSLLRLLRRRSCLLAPGKGSLAMGPSRGPGRSWAVWYRRPRGVALPCPPGDSQAEGPAAGYRPLSASSQSSLRSLVSAL
For orientation: Kd means the equilibrium constant for the complex coming apart. For the molecule B1, the Kd in the assay with DKK1-AP [1] was determined as 0.3 nM; with DKK1-AP [2] it was 2.6 nM; with DKK2-AP [3] it was 0.36 nM; in the assay with DKK2-AP [4], 3 nM.

B2: mkrm1 (receptor)
chain: ARPAPGPRSGPECFTANGADYRGTQSWTALQGGKPCLFWNETFQHPYNTLKYPNGEGGLGEHNYCRNPDGDVSPWCYVAEHEDGVYWKYCEIPACQMPGNLGCYKDHGNPPPLTGTSKTSNKLTIQTCISFCRSQRFKFAGMESGYACFCGNNPDYWKHGEAASTECNSVCFGDHTQPCGGDGRIILFDTLVGACGGNYSAMAAVVYSPDFPDTYATGRVCYWTIRVPGASRIHFNFTLFDIRDSADMVELLDGYTHRVLVRLSGRSRPPLSFNVSLDFVILYFFSDRINQAQGFAVLYQATKEEPPQERPAVNQTLAEVITEQANLSVSAAHSSKVLYVITPSPSHPPQTAPGSHSWAPSVGANSHRVEGWTVYGLATLLILTVTAVVAKILLHVTFKSHRVPASGDLRDCRQPGASGDIWTIFYEPSTTISIFKKKLKGQSQQDDRNPLVSD
B2: the Kd in the assay with DKK2-AP [5] came out at 0.35 nM; in the assay with DKK1-AP [6], 0.28 nM.
